Measured values as given in paper PMC7961048, “Hierarchized phosphotarget binding by the seven human 14-3-3 isoforms” (Nature Communications, 2021).
No end group written: not given here.

T1: full-length human 14-3-3β fused to the C terminus of MBP (human, UniProt P31946 1-246)
T1 construct: not shown: MBP (crystallisable mutant), N-terminal, kept
T1 sequence (looked up): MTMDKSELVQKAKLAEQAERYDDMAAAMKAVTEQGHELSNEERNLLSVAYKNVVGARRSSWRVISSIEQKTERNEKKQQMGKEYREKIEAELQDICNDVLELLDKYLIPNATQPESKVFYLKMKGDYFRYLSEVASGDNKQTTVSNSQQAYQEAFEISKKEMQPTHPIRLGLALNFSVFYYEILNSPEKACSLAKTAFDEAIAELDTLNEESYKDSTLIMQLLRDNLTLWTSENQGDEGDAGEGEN

T2: full-length human 14-3-3γ fused to the C terminus of MBP (human, UniProt P61981 1-247)
T2 construct: not shown: MBP (crystallisable mutant), N-terminal, kept
T2 sequence (looked up): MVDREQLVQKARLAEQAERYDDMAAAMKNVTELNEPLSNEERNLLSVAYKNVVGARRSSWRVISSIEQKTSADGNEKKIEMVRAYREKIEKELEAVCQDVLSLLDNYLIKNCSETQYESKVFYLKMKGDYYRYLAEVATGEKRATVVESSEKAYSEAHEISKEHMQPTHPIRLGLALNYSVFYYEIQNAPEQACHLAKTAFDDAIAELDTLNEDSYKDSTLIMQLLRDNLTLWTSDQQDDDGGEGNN

T3: full-length human 14-3-3ε fused to the C terminus of MBP (human, UniProt P62258 1-255)
T3 construct: not shown: MBP (crystallisable mutant), N-terminal, kept
T3 sequence (looked up): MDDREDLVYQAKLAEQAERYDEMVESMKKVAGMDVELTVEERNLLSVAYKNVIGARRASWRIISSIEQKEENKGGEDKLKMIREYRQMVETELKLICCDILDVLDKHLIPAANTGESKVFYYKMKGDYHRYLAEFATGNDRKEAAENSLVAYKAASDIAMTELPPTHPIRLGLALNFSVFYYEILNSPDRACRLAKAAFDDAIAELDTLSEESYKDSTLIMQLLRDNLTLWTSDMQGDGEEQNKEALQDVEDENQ

T4: full-length human 14-3-3ζ fused to the C terminus of MBP (human, UniProt P63104 1-245)
T4 construct: not shown: MBP (crystallisable mutant), N-terminal, kept
T4 sequence (looked up): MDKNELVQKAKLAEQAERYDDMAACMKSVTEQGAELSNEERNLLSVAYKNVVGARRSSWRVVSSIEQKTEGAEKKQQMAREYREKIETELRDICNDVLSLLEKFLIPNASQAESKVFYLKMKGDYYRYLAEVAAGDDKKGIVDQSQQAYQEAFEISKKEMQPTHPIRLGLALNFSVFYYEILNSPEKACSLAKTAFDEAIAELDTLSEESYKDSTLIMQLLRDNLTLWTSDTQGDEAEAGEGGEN

T5: full-length human 14-3-3η fused to the C terminus of MBP (human, UniProt Q04917 1-246)
T5 construct: not shown: MBP (crystallisable mutant), N-terminal, kept
T5 sequence (looked up): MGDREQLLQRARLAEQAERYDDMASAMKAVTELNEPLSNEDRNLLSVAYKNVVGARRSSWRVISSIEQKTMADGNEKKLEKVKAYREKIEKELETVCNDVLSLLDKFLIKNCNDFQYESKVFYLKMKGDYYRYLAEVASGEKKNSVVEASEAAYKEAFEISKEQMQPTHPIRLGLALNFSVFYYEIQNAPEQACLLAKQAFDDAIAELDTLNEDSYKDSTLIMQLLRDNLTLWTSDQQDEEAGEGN

T6: full-length human 14-3-3σ fused to the C terminus of MBP (human, UniProt P31947 1-248)
T6 construct: not shown: MBP (crystallisable mutant), N-terminal, kept
T6 sequence (looked up): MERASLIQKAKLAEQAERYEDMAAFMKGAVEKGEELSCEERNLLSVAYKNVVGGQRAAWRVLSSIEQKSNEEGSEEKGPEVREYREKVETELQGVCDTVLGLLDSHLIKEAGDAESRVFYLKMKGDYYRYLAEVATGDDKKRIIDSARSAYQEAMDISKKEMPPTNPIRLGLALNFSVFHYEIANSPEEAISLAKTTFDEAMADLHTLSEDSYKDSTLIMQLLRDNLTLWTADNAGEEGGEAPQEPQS

T7: full-length human 14-3-3τ fused to the C terminus of MBP (human, UniProt P27348 1-245)
T7 construct: not shown: MBP (crystallisable mutant), N-terminal, kept
T7 sequence (looked up): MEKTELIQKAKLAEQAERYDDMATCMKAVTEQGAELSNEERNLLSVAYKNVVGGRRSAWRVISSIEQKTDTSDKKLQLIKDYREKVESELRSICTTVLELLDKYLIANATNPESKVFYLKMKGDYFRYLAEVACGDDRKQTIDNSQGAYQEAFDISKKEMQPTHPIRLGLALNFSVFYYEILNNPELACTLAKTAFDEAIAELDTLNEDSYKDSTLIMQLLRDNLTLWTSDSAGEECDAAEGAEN

B1: RSK1 phospho-PBM peptide RSK1_-1P (peptide)
peptide: RRVRKLPSTTL
modifications: not fully specified (residue 10)
notes: source: synthetic peptide (in-house, Fmoc)
B2: fluorescently labeled HSPB6 phosphopeptide (fpB6) (peptide)
peptide: WLRRASAPLPGLK
modifications: also: phosphorylation, site not given here, fluorescent label, unspecified
notes: also called FITC-labeled HSPB6 phosphopeptide; tracer; source: synthetic peptide, amino-terminal FITC labeling
B3: RSK1 phospho-PBM peptide RSK1_-2P (peptide)
peptide: RRVRKLPSTTL
modifications: not fully specified (residue 9)
notes: as for B1

Molecular target: T1, full-length human 14-3-3β fused to the …
Experiment: fluorescence polarisation
Conditions: both partners purified

binding result | Binder
binds | B1
binds | B2
binds | B3

Molecular target: T2, full-length human 14-3-3γ fused to the …
Experiment: fluorescence polarisation
Conditions: both partners purified

binding result | Binder
binds | B1
binds | B2
binds | B3

Molecular target: T3, full-length human 14-3-3ε fused to the …
Experiment: fluorescence polarisation
Conditions: both partners purified

binding result | Binder
binds | B1
binds | B2
binds | B3

Molecular target: T4, full-length human 14-3-3ζ fused to the …
Experiment: fluorescence polarisation
Conditions: both partners purified

binding result | Binder
binds | B1
binds | B2
binds | B3

Molecular target: T5, full-length human 14-3-3η fused to the …
Experiment: fluorescence polarisation
Conditions: both partners purified

binding result | Binder
binds | B1
binds | B2
binds | B3

Molecular target: T6, full-length human 14-3-3σ fused to the …
Experiment: fluorescence polarisation
Conditions: both partners purified

binding result | Binder
binds | B1
binds | B2
binds | B3

Molecular target: T7, full-length human 14-3-3τ fused to the …
Experiment: fluorescence polarisation
Conditions: both partners purified

binding result | Binder
binds | B1
binds | B2
binds | B3
